Source: patent publication US20220119489A1, “COMPOSITIONS AND METHODS FOR […] […] DYSTROPHY AND RELATED DISORDERS” (CHILDREN'S MEDICAL CENTER CORPORATION, published 2022)

B1: EF1A1_MOUSE (other)
chain: GKEKTHINIVVIGHVDSGKSTTTGHLIYKCGGIDKRTIEKFEKEAAEMGKGSFKYAWVLDKLKAERERGITIDISLWKFETSKYYVTIIDAPGHRDFIKNMITGTSQADCAVLIVAAGVGEFEAGISKNGQTREHALLAYTLGVKQLIVGVNKMDSTEPPYSQKRYEEIVKEVSTYIKKIGYNPDTVAFVPISGWNGDNMLEPSANMPWFKGWKVTRKDGSASGTTLLEALDCILPPTRPTDKPLRLPLQDVYKIGGIGTVPVGRVETGVLKPGMVVTFAPVNVTTEVKSVEMHHEALSEALPGDNVGFNVKNVSVKDVRRGNVAGDSKNDPPMEAAGFTAQVIILNHPGQISAGYAPVLDCHTAHIACKFAELKEKIDRRSGKKLEDGPKFLKSGDAAIVDMVPGKPMCVESFSDYPPLGRFAVRDMRQTVAVGVIKAVDKKAAGAGKVTKSAQKAQKAK
B2: ENOB_MOUSE (enzyme)
chain: AMQKIFAREILDSRGNPTVEVDLHTAKGRFRAAVPSGASTGIYEALELRDGDKARYLGKGVLKAVEHINKTLGPALLEKKLSVVDQEKVDKFMIELDGTENKSKFGANAILGVSLAVCKAGAAEKGVPLYRHIADLAGNPDLVLPVPAFNVINGGSHAGNKLAMQEFMILPVGASSFKEAMRIGAEVYHHLKGVIKAKYGKDATNVGDEGGFAPNILENNEALELLKTAIQAAGYPDKVVIGMDVAASEFYRNGKYDLDFKSPDDPARHISGEKLGELYKNFIQNYPVVSIEDPFDQDDWATWTSFLSGVDIQIVGDDLTVTNPKRIAQAVEKKACNCLLLKVNQIGSVTESIQACKLAQSNGWGVMVSHRSGETEDTFIADLVVGLCTGQIKTGAPCRSERLAKYNQLMRIEEALGDKAVFAGRKFRNPKAK
B3: Annexin 1 (mouse) (other)
chain: AMVSEFLKQARFLENQEQEYVQAVKSYKGGPGSAVSPYPSFNVSSDVAALHKAIMVKGVDEATIIDILTKRTNAQRQQIKAAYLQENGKPLDEVLRKALTGHLEEVVLAMLKTPAQFDADELRGAMKGLGTDEDTLIEILTTRSNEQIREINRVYREELKRDLAKDITSDTSGDFRKALLALAKGDRCQDLSVNQDLADTDARALYEAGERRKGTDVNVFTTILTSRSFPHLRRVFQNYGKYSQHDMNKALDLELKGDIEKCLTTIVKCATSTPAFFAEKLYEAMKGAGTRHKALIRIMVSRSEIDMNEIKVFYQKKYGISLCQAILDETKGDYEKILVALCGGN
B4: IGHG_RABIT (other)
chain: GQPKAPSVFPLAPCCGDTPSSTVTLGCLVKGYLPEPVTVTWNSGTLTNGVRTFPSVRQSSGLYSLSSVVSVTSSSQPVTCNVAHPATNTKVDKTVAPSTCSKPTCPPPELLGGPSVFIFPPKPKDTLMISRTPEVTCVVVDVSQDDPEVQFTWYINNEQVRTARPPLREQQFNSTIRVVSTLPITHQDWLRGKEFKCKVHNKALPAPIEKTISKARGQPLEPKVYTMGPPREELSSRSVSLTCMINGFYPSDISVEWEKNGKAEDNYKTTPAVLDSDGSYFLYNKLSVPTSEWQRGDVFTCSVMHEALHNHYTQKSISRSPGK
B5: PRDX1_MOUSE (enzyme)
chain: SSGNAKIGYPAPNFKATAVMPDGQFKDISLSEYKGKYVVFFFYPLDFTFVCPTEIIAFSDRADEFKKLNCQVIGASVDSHFCHLAWINTPKKQGGLGPMNIPLISDPKRTIAQDYGVLKADEGISFRGLFIIDDKGILRQITINDLPVGRSVDEIIRLVQAFQFTDKHGEVCPAGWKPGSDTIKPDVNKSKEYFSKQK
B6: IGG2B_MOUSE (other)
chain: KTTPPSVYPLAPGCGDTTGSSVTLGCLVKGYFPESVTVTWNSGSLSSSVHTFPALLQSGLYTMSSSVTVPSSTWPSQTVTCSVAHPASSTTVDKKLEPSGPISTINPCPPCKECHKCPAPNLEGGPSVFIFPPNIKDVLMISLTPKVTCVVVDVSEDDPDVQISWFVNNVEVHTAQTQTHREDYNSTIRVVSTLPIQHQDWMSGKEFKCKVNNKDLPSPIERTISKIKGLVRAPQVYILPPPAEQLSRKDVSLTCLVVGFNPGDISVEWTSNGHTEENYKDTAPVLDSDGSYFIYSKLNMKTSKWEKTDSFSCNVRHEGLKNYYLKKTISRSPGK
B7: QCR2_MOUSE (other)
chain: SLKVAPKVKTSAAPGGVPLQPQDLEFTKLPNGLVIASLENYAPLSRIGLFVKAGSRYEDSNNLGTSHLLRLASSLTTKGASSFKITRGIEAVGGKLSVTATRENMAYTVEGIRSDIEILMEFLLNVTTAPEFRRWEVAALRSQLKIDKAVAFQNSQTRIIENLHDVAYKNALANPLYCPDYRMGKITSEELHYFVQNHFTSARMALVGLGVSHSVLKQVAEQFLNMRGGLGLAGAKAKYRGGEIREQNGDNLVHAAIVAESAAIGNAEANAFSVLQHLLGAGPHIKRGNNTTSLLSQSVAKGSHQPFDVSAFNASYSDSGLFGIYTISQAAAAGEVINAAYNQVKAVAQGNLSSADVQAAKNKLKAGYLMSVETSEGFLSEIGSQALAAGSYMPPSTVLQQIDSVADADVVKAAKKFVSGKKSMAASGNLGHTPFLDEL
B8: FBX50_MOUSE (other)
chain: MEKTQDRDTLSGRMEAEGSLNSEELPPHPQSPPPPPSPRSPTSPVTPELPQPNAPTEVEARQLLVEEWGPLSGKLELPPRISWQLLFLERPLYRNLLSSPNPEGINIYQPAPPTGPTRKPLKELGNFRGWYITTQNLQGPLSWTVKEQCVNLLAKKLWEELLDDEQPDITIMDWFEDSRLDQCVYELHVWLLAADRRTVIAQHHVAPRTNGRGPPGRWIQVSHVFRQYGPGVRFVYFQHKAKNRMEPGGLRRTRVTDSSVSVQLRE
B9: LYZ1_MOUSE (enzyme)
chain: KVYNRCELARILKRNGMDGYRGVKLADWVCLAQHESNYNTRATNYNRGDRSTDYGIFQINSRYWCNDGKTPRSKNACGINCSALLQDDITAAIQCAKRVVRDPQGIRAWVAWRTQCQNRDLSQYIRNCGV
B10: Creatine Kinase, Muscle type (enzyme)
chain: not shown
B11: ALDOA_MOUSE (enzyme)
chain: PHPYPALTPEQKKELSDIAHRIVAPGKGILAADESTGSIAKRLQSIGTENTEENRRFYRQLLLTADDRVNPCIGGVILFHETLYQKADDGRPFPQVIKSKGGVVGIKVDKGVVPLAGTNGETTTQGLDGLSERCAQYKKDGADFAKWRCVLKIGEHTPSALAIMENANVLARYASICQQNGIVPIVEPEILPDGDHDLKRCQYVTEKVLAAVYKALSDHHVYLEGTLLKPNMVTPGHACTQKFSNEEIAMATVTALRRTVPPAVTGVTFLSGGQSEEEASINLNAINKCPLLKPWALTFSYGRALQASALKAWGGKKENLKAAQEEYIKRALANSLACQGKYTPSGQSGAAASESLFISNHAY
B12: Annexin 2 (mouse) (other)
chain: STVHEILCKLSLEGDHSTPPSAYGSVKPYTNFDAERDALNIETAVKTKGVDEVTIVNILTNRSNVQRQDIAFAYQRRTKKELPSALKSALSGHLETVILGLLKTPAQYDASELKASMKGLGTDEDSLIEIICSRTNQELQEINRVYKEMYKTDLEKDIISDTSGDFRKLMVALAKGRRAEDGSVIDYELIDQDARELYDAGVKRKGTDVPKWISIMTERSVCHLQKVFERYKSYSPYDMLESIKKEVKGDLENAFLNLVQCIQNKPLYFADRLYDSMKGKGTRDKVLIRIMVSRSEVDMLKIRSEFKRKYGKSLYYYIQQDTKGDYQKALLYLCGGDD
B13: ENOA_MOUSE (enzyme)
chain: SILRIHAREIFDSRGNPTVEVDLYTAKGLFRAAVPSGASTGIYEALELRDNDKTRFMGKGVSQAVEHINKTIAPALVSKKVNVVEQEKIDKLMIEMDGTENKSKFGANAILGVSLAVCKAGAVEKGVPLYRHIADLAGNPEVILPVPAFNVINGGSHAGNKLAMQEFMILPVGASSFREAMRIGAEVYHNLKNVIKEKYGKDATNVGDEGGFAPNILENKEALELLKTAIAKAGYTDQVVIGMDVAASEFYRSGKYDLDFKSPDDPSRYITPDQLADLYKSFVQNYPVVSIEDPFDQDDWGAWQKFTASAGIQVVGDDLTVTNPKRIAKAASEKSCNCLLLKVNQIGSVTESLQACKLAQSNGWGVMVSHRSGETEDTFIADLVVGLCTGQIKTGAPCRSERLAKYNQILRIEEELGSKAKFAGRSFRNPLAK
B14: CISY_MOUSE (enzyme)
chain: ASSTNLKDVLSNLIPKEQARIKTFKQQHGKTVVGQITVDMMYGGMRGMKGLVYETSVLDPDEGIRFRGYSIPECQKMLPKAKGGEEPLPEGLFWLLVTGQMPTEEQVSWLSREWAKRAALPSHVVTMLDNFPTNLHPMSQLSAAITALNSESNFARAYAEGMNRAKYWELIYEDCMDLIAKLPCVAAKIYRNLYREGSSIGAIDSRLDWSHNFTNMLGYTDPQFTELMRLYLTIHSDHEGGNVSAHTSHLVGSALSDPYLSFAAAMNGLAGPLHGLANQEVLVWLTQLQKEVGKDVSDEKLRDYIWNTLNSGRVVPGYGHAVLRKTDPRYSCQREFALKHLPKDPMFKLVAQLYKIVPNILLEQGKAKNPWPNVDAHSGVLLQYYGMTEMNYYTVLFGVSRALGVLAQLIWSRALGFPLERPKSMSTDGLMKFVDSK

Biological target: CD82 (mouse) (mouse, UniProt P40237)
Test: IP with anti CD82 antibodies, mouse muscle tissue, mass spectrometry

Row | Total | Unique | Binder
1 | 2 | 2 | B1
2 | 7 | 7 | B2
3 | 2 | 2 | B3
4 | 25 | 7 | B4
5 | 3 | 2 | B5
6 | 1 | 1 | B6
7 | 1 | 1 | B7
8 | 2 | 2 | B8
9 | 1 | 1 | B9
10 | 14 | 11 | B10
11 | 3 | 3 | B11
12 | 1 | 1 | B12
13 | 2 | 2 | B13
14 | 2 | 2 | B14
